Entries after “also recorded” stand apart in the source; their conditions may differ. Square brackets hold non-standard residues; d marks the D form. Ends that are not written are not given here. Peptide text beside a SMILES is read from it. Hyp = O=C(O)[C@@H]1C[C@@H](O)CN1
Columns and labels:
[1] = target: T1, ecdTDR (extracellular domain of TDR, residues 30–642), wild type (Arabidopsis thaliana, UniProt Q9FII5); assay: ITC of synthetic TDIF/CLE peptides with wild-type ecdTDR; conditions: for Kd (dissociation constant) / Binding to TDR in words (relative to wild type peptide): ITC, 25°C, pH 5.5; for Kd (dissociation constant): 10 mM sodium citrate, 100 mM NaCl, 0.5–1 mM peptide titrated into 10–40 μM ecdTDR, one set of binding sites, Kd = 1/Ka; for Binding to TDR in words (relative to wild type peptide): wild-type ecdTDR
T1 sequence (Q9FII5 30-642): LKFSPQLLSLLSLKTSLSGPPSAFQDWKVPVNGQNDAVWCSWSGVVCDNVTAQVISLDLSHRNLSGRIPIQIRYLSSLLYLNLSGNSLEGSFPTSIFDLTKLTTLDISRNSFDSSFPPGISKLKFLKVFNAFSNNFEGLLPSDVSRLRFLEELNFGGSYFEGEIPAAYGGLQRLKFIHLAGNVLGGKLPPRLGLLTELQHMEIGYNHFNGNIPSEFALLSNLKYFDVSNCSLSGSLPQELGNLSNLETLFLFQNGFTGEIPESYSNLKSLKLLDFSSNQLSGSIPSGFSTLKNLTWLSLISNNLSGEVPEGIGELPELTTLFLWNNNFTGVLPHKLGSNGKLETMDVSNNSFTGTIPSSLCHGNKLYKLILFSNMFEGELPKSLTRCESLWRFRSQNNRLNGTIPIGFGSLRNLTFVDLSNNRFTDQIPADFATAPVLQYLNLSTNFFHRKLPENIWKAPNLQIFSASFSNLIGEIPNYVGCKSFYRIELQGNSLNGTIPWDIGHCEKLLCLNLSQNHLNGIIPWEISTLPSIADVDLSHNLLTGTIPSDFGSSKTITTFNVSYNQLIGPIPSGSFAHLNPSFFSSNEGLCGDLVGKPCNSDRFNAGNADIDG
Description: To elucidate the molecular basis of TDR-TDIF interaction, we expressed the extracellular domain of TDR (residues 30–642) from Arabidopsis thaliana using Bac-to-Bac baculovirus-mediated insect cell expression system (Invitrogen). DNA fragment encoding the A. thaliana TDR gene (residues 30–642) were amplified by polymerase chain reaction (PCR) from an A. thaliana Expressed Sequence Tag (EST) clone as template. The amplified DNA fragment was then cloned into a modified pFastBac1 vector with the secretion signal sequence of baculovirus gp67 glycoprotein fused to its 5’ end and an engineered 6-histidine tag at the carboxyl terminus of the TDR protein. The construct plasmid was used to transform DH10Bac (Invitrogen) competent cells to generated recombinant bacmid DNA. Then the bacmid DNA was used to transfect sf9 insect cells to generate recombinant virus which was then amplified three times to passage 3. We used 20 ml passage 3 virus to infect each liter of High Five cells with a cell density of 1.5 x 10^6 in SF900 II SFM medium (Invitrogen). The recombinant protein was expressed in High Five cells at 27°C. […] The TDR mutants were generated using a PCR-based site-directed mutagenesis kit (Invitrogen), and the mutant TDR proteins were expressed and purified as the same procedure of the wild-type TDR (30–642) protein.
ITC experiments were performed on a MicroCal Auto-iTC200 instrument. […] Experiments were carried out at 25°C in a buffer containing 10 mM sodium citrate and 100 mM NaCl at pH 5.5. The data was analyzed using ORIGIN software. The association constant (Ka), enthalpy change (ΔH), and the stoichiometry (N) were calculated by fitting the thermograms to one set of binding sites. The association constant (Ka) was calculated by fitting the thermograms to one binding site.

[2] = target: ecdTDR S305A/W353A/R421A/R423A (Arabidopsis thaliana, UniProt Q9FII5, R421A/R423A/S305A/W353A); conditions: ITC, wild type TDIF, 25°C, pH 5.5
Sequence of ecdTDR S305A/W353A/R421A/R423A (Q9FII5 30-642 S305A/W353A/R421A/R423A): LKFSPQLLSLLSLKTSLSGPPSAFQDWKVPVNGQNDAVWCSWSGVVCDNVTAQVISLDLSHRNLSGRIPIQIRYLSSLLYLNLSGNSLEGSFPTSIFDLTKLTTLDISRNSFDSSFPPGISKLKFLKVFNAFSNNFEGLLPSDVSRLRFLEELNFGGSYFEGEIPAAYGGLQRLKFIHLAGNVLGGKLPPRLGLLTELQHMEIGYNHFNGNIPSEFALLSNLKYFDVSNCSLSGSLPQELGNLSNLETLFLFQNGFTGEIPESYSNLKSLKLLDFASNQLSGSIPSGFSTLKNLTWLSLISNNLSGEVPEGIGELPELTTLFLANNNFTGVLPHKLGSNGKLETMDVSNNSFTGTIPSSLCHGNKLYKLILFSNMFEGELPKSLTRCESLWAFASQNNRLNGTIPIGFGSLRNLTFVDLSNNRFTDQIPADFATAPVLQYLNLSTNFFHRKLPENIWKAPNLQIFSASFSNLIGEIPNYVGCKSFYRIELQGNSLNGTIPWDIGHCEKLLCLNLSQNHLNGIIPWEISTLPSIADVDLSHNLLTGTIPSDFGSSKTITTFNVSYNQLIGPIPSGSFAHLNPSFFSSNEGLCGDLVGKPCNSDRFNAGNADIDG
Description: (§1) To elucidate the molecular basis of TDR-TDIF interaction, we expressed the extracellular domain of TDR (residues 30–642) from Arabidopsis thaliana using Bac-to-Bac baculovirus-mediated insect cell expression system (Invitrogen). DNA fragment encoding the A. thaliana TDR gene (residues 30–642) were amplified by polymerase chain reaction (PCR) from an A. thaliana Expressed Sequence Tag (EST) clone as template. The amplified DNA fragment was then cloned into a modified pFastBac1 vector with the secretion signal sequence of baculovirus gp67 glycoprotein fused to its 5’ end and an engineered 6-histidine tag at the carboxyl terminus of the TDR protein. The construct plasmid was used to transform DH10Bac (Invitrogen) competent cells to generated recombinant bacmid DNA. Then the bacmid DNA was used to transfect sf9 insect cells to generate recombinant virus which was then amplified three times to passage 3. […]
(§2) ITC experiments were performed on a MicroCal Auto-iTC200 instrument. […] The data was analyzed using ORIGIN software. The association constant (Ka), enthalpy change (ΔH), and the stoichiometry (N) were calculated by fitting the thermograms to one set of binding sites. The association constant (Ka) was calculated by fitting the thermograms to one binding site.

[3] = target: ecdTDR Y234A/F279A/F281A/S305A/W353A/ R421A/R423A (Arabidopsis thaliana, UniProt Q9FII5, F279A/F281A/R421A/R423A/S305A/W353A/Y234A); conditions: ITC, wild type TDIF, 25°C, pH 5.5
Sequence of ecdTDR Y234A/F279A/F281A/S305A/W353A/ R421A/R423A (Q9FII5 30-642 Y234A/F279A/F281A/S305A/W353A/R421A/R423A): as the sequence (Q9FII5 30-642 S305A/W353A/R421A/R423A) above, with Y205A, F250A, F252A counted along it
Description: as §1, §2

[4] = test system: tracheary element differentiation; conditions: reported in vivo study; cited from earlier work
Description: There are two major anchoring sites on the TDIF peptide that are separated by Hyp4-S5-G6-Hyp7 (Fig 2). […] The side chain of H1 dips into a binding pocket of TDR formed by residues S162, G186, S187, Y188 and G210. In addition, hydrogen bonding interactions create major interactiv ... || Three TDIF residues N8, I10 and N12 form a C-terminal anchoring site (Fig 2C). Alanine substitutions of these residues N8A, I10A and N12A radically weaken their binding with TDR receptor. δ-NH2 group of N8 forms hydrogen bonds with the hydroxyl group of S305; side chain of I10 forms hydrophobic interaction with W353; δ-NH2 group of N12 forms hydrogen bonds with the hydroxyl group of S377 and carbonyl group of N12 forms a hydrogen bond with the side chain of R421.

[5] = target: T2, extracellular domain of A. thaliana TDR (residues 30-642), Q9FII5; assay: ITC
T2 chain: T1 sequence (Q9FII5 30-642)

[6] = target: T3, extracellular domain of A. thaliana TDR (residues 30-642) (Arabidopsis thaliana, UniProt Q9FII5 30-642, N-glycosylated at N111, N356, N378, N471 and N525 (one GlcNAc visible on each in the structures)); assay: ITC; 0.5–1 mM peptide titrated into 10–40 μM ecdTDR; 25°C; 10 mM sodium citrate, 100 mM NaCl, pH 5.5; fitted to one set of binding sites; MicroCal Auto-iTC200; conditions: both partners purified
T3 construct: TDR/PXY (TDIF RECEPTOR / PHLOEM INTERCALATED WITH XYLEM) of A. thaliana, extracellular domain, residues 30-642; the structure models hold residues 40-625; also called ecdTDR; TDR-ECD; source: High Five insect cells (baculovirus), secreted, purified (Ni-NTA, size-exclusion chromatography)
T3 sequence (looked up): T1 sequence (Q9FII5 30-642)

[7] = target: T4, extracellular domain of A. thaliana TDR (residues 30-642) (Arabidopsis thaliana, UniProt Q9FII5 30-642, N-glycosylated at N111, N356, N378, N471 and N525 (one GlcNAc visible on each in the structures)); assay: ITC
T4 chain: T1 sequence (Q9FII5 30-642)

Molecule: TDIF-H1A/E2A/V3A/N8A/I10A/N12A: TDIF mutant peptide, both anchoring sites mutated (AAAPSGPAPASA; not fully specified (residues 4, 7))
- Kd (dissociation constant) [1]: No binding
- Binding to TDR in words (relative to wild type peptide) [1]: no binding

Molecule: CLE46: CLE peptide with E2K, V3H, I10T and S11G substitutions relative to TDIF (HKHPSGPNPTGN) [reference compound]
- Kd (dissociation constant) [1]: No binding
- Binding to TDR in words (relative to wild type peptide) [1]: no measurable binding; also recorded: unable to bind TDR

Molecule: CC(C)[C@H](NC(=O)[C@H](CCC(=O)O)NC(=O)[C@@H](N)Cc1c[nH]cn1)C(=O)N1C[C@H](O)C[C@H]1C(=O)N[C@@H](CO)C(=O)NCC(=O)N1C[C@H](O)C[C@H]1C(=O)N[C@@H](C)C(=O)N1CCC[C@H]1C(=O)N[C@@H](C)C(=O)N[C@@H](CO)C(=O)N[C@@H](C)C(=O)O [TDIF-N8A/I10A/N12A] (H-HEV[Hyp]SG[Hyp]APASA-OH)
- Kd [1]: 11.1 ± 1.84 µM

Molecule: CC[C@H](C)[C@H](NC(=O)[C@@H]1CCCN1C(=O)[C@H](CC(N)=O)NC(=O)[C@@H]1C[C@@H](O)CN1C(=O)CNC(=O)[C@H](CO)NC(=O)[C@@H]1C[C@@H](O)CN1C(=O)[C@@H](NC(=O)[C@H](CCC(=O)O)NC(=O)[C@@H](N)Cc1c[nH]cn1)C(C)C)C(=O)N[C@@H](CO)C(=O)N[C@@H](CC(N)=O)C(=O)O [TDIF, Tracheary Element Differentiation Inhibitory Factor] (H-HEV[Hyp]SG[Hyp]NPISN-OH)
- Kd [2]: no measurable binding
- Kd [3]: no measurable binding

Molecule: CC[C@H](C)[C@H](NC(=O)[C@@H]1CCCN1C(=O)[C@H](CC(N)=O)NC(=O)[C@@H]1C[C@@H](O)CN1C(=O)CNC(=O)[C@H](CO)NC(=O)[C@@H]1C[C@@H](O)CN1C(=O)[C@@H](NC(=O)[C@H](CCC(=O)O)NC(=O)[C@@H](N)Cc1c[nH]cn1)C(C)C)C(=O)N[C@@H](CO)C(=O)N[C@@H](C)C(=O)O [TDIF-N12A] (H-HEV[Hyp]SG[Hyp]NPISA-OH)
- Kd [1]: 4.69 ± 0.47 µM

Molecule: TDIF-P9A: TDIF mutant peptide, P9A (HEV[Hyp]SG[Hyp]NAISN)
- Effect on inhibition of tracheary element differentiation, in words [4]: significant in effect

Molecule: TDIF-S11A: TDIF mutant peptide, S11A substitution (HEVPSGPNPIAN; not fully specified (residues 4, 7))
- Binding to TDR in words (relative to wild type peptide) [1]: barely affects the binding affinity

Molecule: TDIF-H1A/E2A/V3A/N12A: TDIF mutant peptide (AAAPSGPNPISA; not fully specified (residues 4, 7))
- Kd (dissociation constant) [1]: No binding
- Binding to TDR in words (relative to wild type peptide) [1]: no binding

Molecule: CLE42: CLE peptide in which the E2 of TDIF has been replaced with glycine (HGVPSGPNPISN) [reference compound]
- Binding to TDR in words (relative to wild type peptide) [1]: does not influence the binding significantly

Molecule: HLVPSGPNPLHN [CLE9 peptide R1H]
- ratio to parent ([5]; chain shown with the change): -46.6
- other: fold change in Kd against wild type TDIF ([5]; chain shown with the change, parent: […]): 2.1
- Kd ([5]; chain shown with the change;, parent: 10215 ± 6281 nM): 0.219 µM

B1: CLE42 peptide (peptide)
peptide: HGVPSGPNPISN
notes: CLE42 peptide of A. thaliana; numbers count on: the 12-residue peptide
- binding result [6]: binds

B2: G6A TDIF mutant peptide (peptide)
peptide: HEV[Hyp]SA[Hyp]NPISN
notes: TDIF (CLE41/CLE44 peptide) of A. thaliana; numbers count on: the 12-residue peptide
- fold lower affinity than wild-type TDIF [6]: 13.9 fold

B3: G6T TDIF mutant peptide (peptide)
peptide: HEV[Hyp]ST[Hyp]NPISN
notes: as for B2
- fold lower affinity than wild-type TDIF [6]: 20.1 fold

B4: TDIF E2A mutant peptide (peptide)
peptide: HAV[Hyp]SG[Hyp]NPISN
notes: as for B2
- fold increase in Kd over wild-type TDIF [6]: 3.2 fold

B5: TDIF E2R mutant peptide (peptide)
peptide: HRV[Hyp]SG[Hyp]NPISN
notes: as for B2
- fold increase in Kd over wild-type TDIF [6]: 5.3 fold

B6: TDIF H1A mutant peptide (peptide)
peptide: AEV[Hyp]SG[Hyp]NPISN
notes: as for B2
- fold lower affinity than wild-type TDIF [6]: ~115 fold

B7: TDIF S11A mutant peptide (peptide)
peptide: HEV[Hyp]SG[Hyp]NPIAN
notes: as for B2
- binding result [6]: binds

B8: TDIF V3A mutant peptide (peptide)
peptide: HEA[Hyp]SG[Hyp]NPISN
notes: as for B2
- fold lower affinity than wild-type TDIF [6]: 11.1 fold

B9: TDIF peptide with alanine substitution of Hyp4 (peptide)
peptide: HEVASG[Hyp]NPISN
notes: TDIF (CLE41/CLE44 peptide) of A. thaliana; numbers count on: the 12-residue peptide; also called Hyp4 alanine mutant
- binding result [6]: binds

B10: TDIF peptide with alanine substitution of Hyp7 (peptide)
peptide: HEV[Hyp]SGANPISN
notes: TDIF (CLE41/CLE44 peptide) of A. thaliana; numbers count on: the 12-residue peptide; also called Hyp7 alanine mutant
- binding result [6]: binds

B11: TDIF peptide with alanine substitution of S5 (peptide)
peptide: HEV[Hyp]AG[Hyp]NPISN
notes: TDIF (CLE41/CLE44 peptide) of A. thaliana; numbers count on: the 12-residue peptide; also called S5 alanine mutant
- binding result [6]: binds

B12: TDIF-H1R peptide (peptide)
peptide: REV[Hyp]SG[Hyp]NPISN
notes: TDIF (CLE41/CLE44 peptide) of A. thaliana; numbers count on: the 12-residue peptide; also called printed once as 'R1H substitution of TDIF'; source: synthetic peptide
- fold lower affinity than wild-type TDIF [6]: 3.2 fold

B13: TDIF-P9A mutant peptide (peptide)
peptide: HEV[Hyp]SG[Hyp]NAISN
notes: as for B2
- fold decrease in binding against wild-type TDIF [6]: 2 fold

Molecule: RLVPSGPNPLHN [CLE9 peptide]
- Kd [7]: 10.2 µM

B14: TDIF-N8A/I10A/N12A peptide (peptide)
peptide: HEV[Hyp]SG[Hyp]APASA
notes: as for B2
- Kd [6]: ~11 µM
- fold lower affinity than wild-type TDIF [6]: ~110 fold

From paper PMC5383425, “Differential CLE peptide perception by plant receptors implicated from structural and functional analyses of TDIF-TDR interactions” (PLoS ONE, 2017)
